Numbering of substitutions follows the chain as printed. Names may count otherwise.
B1: LAG3.6-G4P (antibody, V domains shown)
VH: QVQLQQWGAGLLKPSETLSLTCAVYGGSFSDYYWNWIRQPPGKGLEWIGEIIHSGSTNSNPSLKSRVTLSLDTSKNQFSLKLRSVTAADTAVYYCAFGYSDYEYNWFDPWGQGTLVTVSS
VL: EIVLTQSPATLSLSPGERATLSCRASQSISSYLAWYQQKPGQAPRLLIYDASNRATGIPARFSGSGSGTDFTLTISSLEPEDFAVYYCQQRSNWPLTFGQGTNLEIKR
notes: also called var2; copies: 2 + 2
B2: LAG3.8 antibody variant of LAG3.1 (25F7) (antibody, V domains shown)
VH: B1 VH with I52N, S54I, S56N
VL: B1 VL
notes: It was made by site-directed mutagenesis of the LAG3.1 VH
B3: antibody 25F7 (LAG3.1), anti-human LAG-3 human monoclonal antibody (antibody, human IgG4 S228P, kappa, V domains shown)
VH: B1 VH with I52N, S54N, S56N
VL: B1 VL
notes: The heavy chain is human IgG4 with S228P; also called antibody LAG3.1
B4: LAG3.7-G4P (antibody, V domains shown)
VH: B1 VH with I52N, S54G, S56G
VL: B1 VL
notes: also called var3; copies: 2 + 2

What was measured:
[1] = target: T1, soluble human LAG-3/Fc antigen (human, UniProt P18627 23-450); assay: BIACORE (surface plasmon resonance) with soluble human LAG-3/Fc antigen
T1 construct: also called huLAG-3-Fc; not shown: Fc part of the fusion
T1 sequence: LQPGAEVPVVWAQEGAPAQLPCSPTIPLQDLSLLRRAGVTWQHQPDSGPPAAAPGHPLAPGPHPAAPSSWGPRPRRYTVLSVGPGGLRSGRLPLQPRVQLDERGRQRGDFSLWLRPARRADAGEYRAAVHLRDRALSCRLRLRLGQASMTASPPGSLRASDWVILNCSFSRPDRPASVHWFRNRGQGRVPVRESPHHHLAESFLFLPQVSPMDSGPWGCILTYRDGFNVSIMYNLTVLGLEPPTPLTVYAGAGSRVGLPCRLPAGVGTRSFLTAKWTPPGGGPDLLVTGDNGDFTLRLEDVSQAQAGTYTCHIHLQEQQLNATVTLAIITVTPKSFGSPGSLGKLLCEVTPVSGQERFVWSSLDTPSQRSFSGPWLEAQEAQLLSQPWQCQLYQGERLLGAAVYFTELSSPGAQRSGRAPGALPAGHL

[2] = target: T2, human LAG-3 on activated Hu CD4+ T cells; assay: flow cytometry on anti-CD3/anti-CD28-activated human CD4+ T cells (native LAG-3), PE anti-human Fc detection, FL2 GMFI
T2 construct: differs from m5, which is LAG-3 transduced into 3A9 cells; also called native human LAG-3
T2 chain: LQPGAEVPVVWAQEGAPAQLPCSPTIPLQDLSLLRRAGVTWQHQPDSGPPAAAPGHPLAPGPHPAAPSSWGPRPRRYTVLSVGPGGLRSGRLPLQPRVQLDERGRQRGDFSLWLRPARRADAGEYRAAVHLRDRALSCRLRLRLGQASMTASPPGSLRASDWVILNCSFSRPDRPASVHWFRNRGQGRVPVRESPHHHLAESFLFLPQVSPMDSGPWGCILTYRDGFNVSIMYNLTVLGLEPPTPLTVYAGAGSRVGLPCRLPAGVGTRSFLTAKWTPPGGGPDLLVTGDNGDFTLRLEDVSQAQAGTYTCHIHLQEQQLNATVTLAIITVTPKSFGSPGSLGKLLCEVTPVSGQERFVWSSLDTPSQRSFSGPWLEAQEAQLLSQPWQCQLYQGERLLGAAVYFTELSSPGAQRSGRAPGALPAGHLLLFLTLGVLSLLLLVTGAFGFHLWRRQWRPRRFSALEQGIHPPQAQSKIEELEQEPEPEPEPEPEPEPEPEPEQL
Description: (§1) To test the ability of the antibody variants to bind to native human LAG-3 on the surface of activated human T cells, normal healthy donor peripheral blood mononuclear cells were stimulated in 15 cm tissue culture plates at a density of 2×10e6 cells/mL, with a combination of anti-CD3 (eBioscience, Cat #16-0037-85) and anti-CD28 (BD Bioscience, Cat #555725) antibodies present in solution at 5 μg/mL and 3 μg/mL, respectively. Following three days of stimulation cells were harvested, washed 1× with 1×PFAE buffer (1×PBS+2% FBS, 0.02% sodium azide, 2 mM Na EDTA), and resuspended in 1×PFAE buffer for staining.
(§2) For the binding reaction, 100 μl of this diluted antibody mixture was added to 2×10⁵ cells and the mixture was incubated on at 4° C. for 30 minutes. The cells were then washed two times with 1×PFAE buffer. A 1:200 dilution of PE-labeled goat anti-human Fcγ-specific antibody (Jackson ImmunoResearch, Cat. #109-116-170) was added and the mixture was incubated for 30 minutes at 4° C., followed by washing twice with cold 1×PFAE buffer. After the final wash, 150 μl of cold 1×PFAE was added to each solution and analysis of antibody binding was carried out by flow cytometry using a FACSCanto flow cytometer (BD Bioscience).

[3] = target: T1, soluble human LAG-3/Fc antigen; assay: Biacore (SPR); antibody kept in PBS
[4] = target: T1, soluble human LAG-3/Fc antigen; assay: Biacore (SPR); antibody after accelerated stress at pH 8 (5 days, 40 C)
[5] = target: T2, human LAG-3 on activated Hu CD4+ T cells; assay: flow cytometry on activated human CD4+ T cells (donor WB1907), FL2 GMFI; antibody after 5 days at 40 °C in pH 8.0 ammonium bicarbonate
Description: as §1, §2

[6] = target: T2, human LAG-3 on activated Hu CD4+ T cells; assay: flow cytometry on activated human CD4+ T cells (donor WB1907), FL2 GMFI; forced stability study, sample not marked pH 8
Description: as §1, §2

Binder | Kd [1] | koff [1] | kon [1] | EC50 [2] | Kd [3] | koff [3] | kon [3] | Kd [4] | koff [4] | kon [4] | EC50 [5] | EC50 [6] | EC50 (read off the curve) [2]
B1 | 0.66 nM | 0.000777 s⁻¹ | 1.18e+06 M⁻¹ s⁻¹ | 0.21 nM |  |  |  |  |  |  |  |  | 
B2 |  |  |  |  | 0.25 nM | 0.000368 s⁻¹ | 1.47e+06 M⁻¹ s⁻¹ | 0.25 nM | 0.000402 s⁻¹ | 1.62e+06 M⁻¹ s⁻¹ | 0.21 nM | 0.24 nM | 
B3 | 0.27 nM |  |  | 0.13 nM | 0.21 nM |  |  | 0.2 nM |  |  | 0.2 nM |  | 
B4 |  |  | 1.04e+06 M⁻¹ s⁻¹ |  |  |  |  |  |  |  |  |  | ~0.3 nM

Source: patent US20170137514A1 (Bristol-Myers Squibb, published 2017)
